The record followed here is US20250361544A1, “TYPE III-D CRISPR-CAS SYSTEM AND USES THEREOF” (BOARD OF REGENTS, THE UNIVERSITY OF TEXAS SYSTEM, published 2025).

The labels stand for the following.
B1: Cas7-Cas5-Cas11 fusion subunit of the Synechocystis sp. PCC 6803 Type III-Dv complex (other)
chain: MRGIEITITMQSDWHVGTGMGRGELDSVVQRDGDNLPYIPGKTLTGILRDSCEQVALGLDNGQTRGLWHGWINFIFGDQPALAQGAIEPEPRPALIAIGSAHLDPKLKAAFQGKKQLQEAIAFMKPGVAIDAITGTAKKDFLRFEEVVRLGAKLTAEVELNLPDNLSETNKKVIAGILASGAKLTERLGGKRRRGNGRCELKFSGYSDQQIQWLKDNYQSVDQPPKYQQNKLQSAGDNPEQQPPWHIIPLTIKTLSPVVLPARTVGNVVECLDYIPGRYLLGYIHKTLGEYFDVSQAIAAGDLIITNATIKIDGKAGRATPFCLFGEKLDGGLGKGKGVYNRFQESEPDGIQLKGERGGYVGQFEQEQRNLPNTGKINSELFTHNTIQDDVQRPTSDVGGVYSYEAIIAGQTFVAELRLPDSLVKQITSKNKNWQAQLKATIRIGQSKKDQYGKIEVTSGNSADLPKPTGNNKTLSIWFLSDILLRGDRLNFNATPDDLKKYLENALDIKLKERSDNDLICIALRSQRTESWQVRWGLPRPSLVGWQAGSCLIYDIESGTVNAEKLQELMITGIGDRCTEGYGQIGFNDPLLSASLGKLTAKPKASNNQSQNSQSNPLPTNHPTQDYARLIEKAAWREAIQNKALALASSRAKREEILGIKIMGKDSQPTMTQLGGFRSVLKRLHSRNNRDIVTGYLTALEQVSNRKEKWSNTSQGLTKIRNLVTQENLIWNHLDIDFSPLTITQNGVNQLKSELWAEAVRTLVDAIIRGHKRDLEKAQENESNQQSQGAA
notes: Untagged, co-expressed from pPF2434 in E. coli; one copy in the complex; also called Cas7-5-11; Cas5-Cas7-Cas11

In data set [1] the target is Type III-Dv effector complex (Cas10, Cas7-Cas5-Cas11, Cas7-2x, Csx19, Cas7-insertion) (Synechocystis sp. PCC 6803). Nature of the data set: structure; cryo-EM 2.5 A binary complex with 37-nt crRNA. The settings on record: tags: N-terminal His6-TEV on Cas10. The method, then:
(§1) Fully assembled Type III-D binary complex was diluted to a concentration of 0.3 mg/ml in SEC buffer before 2.5 μl of sample was added to a quantifoil 1.2/1.3 grid that was glow discharged for 1 minute. Sample was applied to the grid in an FEI Vitrobot MarkIV kept at 100% humidity and 4° C. before blotting for 5.5 seconds with a force of 0. For the ssRNA target-bound complex, non-self ssRNA was mixed with the binary complex with a 2:1 molar ratio of RNA:Binary complex in SEC buffer to a final protein concentration of 0.3 mg/mL. Grids of the target-bound complex were frozen identical to that of the binary complex. Both grids were loaded to an FEI Titan Krios (Sauer Structural Biology Lab, University of Texas at Austin) operating at 300 kV. Images were taken at a pixel size of 0.81 Å/pixel with a dose rate of 10.6 e⁻/pixel/s for 5 seconds using a Gatan K3 direct electron detector, giving a final dosage of 80.5 e⁻/Å². Data collection was automated using SerialEM using a defocus range of −1.2 to −2.2 μm.
(§2) To delineate the architecture of this Type III-Dv effector, we used cryo-EM to determine a 2.5-Å resolution structure of the complex containing the nt crRNA (FIG. 1e,f, FIG. 8). To gain preliminary insights, we generated initial models of each subunit using Alphafold 2. […]

In data set [2] the target is T1, Cas7-Cas7 fusion subunit of the Synechocystis sp. PCC 6803 Type III-Dv complex (Synechocystis sp. PCC 6803).
T1 construct: Untagged, co-expressed from pPF2434 in E. coli; one copy in the complex; also called Cas7-2x; Cas7_2x
T1 chain: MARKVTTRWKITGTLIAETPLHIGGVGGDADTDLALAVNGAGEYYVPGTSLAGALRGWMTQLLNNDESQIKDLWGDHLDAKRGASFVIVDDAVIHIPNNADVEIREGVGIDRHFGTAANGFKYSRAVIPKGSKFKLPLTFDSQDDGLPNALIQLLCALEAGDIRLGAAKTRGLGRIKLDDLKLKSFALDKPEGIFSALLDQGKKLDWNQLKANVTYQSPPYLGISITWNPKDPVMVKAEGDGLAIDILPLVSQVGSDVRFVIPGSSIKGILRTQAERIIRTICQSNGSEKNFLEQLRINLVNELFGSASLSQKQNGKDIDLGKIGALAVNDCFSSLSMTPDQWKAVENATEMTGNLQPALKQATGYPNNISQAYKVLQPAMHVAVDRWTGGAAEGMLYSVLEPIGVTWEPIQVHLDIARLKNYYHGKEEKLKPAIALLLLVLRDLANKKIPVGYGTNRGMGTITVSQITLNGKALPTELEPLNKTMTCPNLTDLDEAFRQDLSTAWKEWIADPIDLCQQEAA
Nature of the data set: cryo-EM structure of the binary complex, 2.5 Å. The method, then:
as §1, §2

In data set [3] the target is T2, Cas10 subunit of the Synechocystis sp. PCC 6803 Type III-Dv CRISPR-Cas complex, with N-terminal His6 tag and … (Synechocystis sp. PCC 6803).
T2 construct: Whole gene amplified from Synechocystis genomic DNA and co-expressed in E. coli from pPF2434; The complex also holds a 37-nt crRNA; also called His6-TEV-Cas10; N-His6-tagged Cas10; not shown: TEV cleavage was inefficient, so
T2 chain: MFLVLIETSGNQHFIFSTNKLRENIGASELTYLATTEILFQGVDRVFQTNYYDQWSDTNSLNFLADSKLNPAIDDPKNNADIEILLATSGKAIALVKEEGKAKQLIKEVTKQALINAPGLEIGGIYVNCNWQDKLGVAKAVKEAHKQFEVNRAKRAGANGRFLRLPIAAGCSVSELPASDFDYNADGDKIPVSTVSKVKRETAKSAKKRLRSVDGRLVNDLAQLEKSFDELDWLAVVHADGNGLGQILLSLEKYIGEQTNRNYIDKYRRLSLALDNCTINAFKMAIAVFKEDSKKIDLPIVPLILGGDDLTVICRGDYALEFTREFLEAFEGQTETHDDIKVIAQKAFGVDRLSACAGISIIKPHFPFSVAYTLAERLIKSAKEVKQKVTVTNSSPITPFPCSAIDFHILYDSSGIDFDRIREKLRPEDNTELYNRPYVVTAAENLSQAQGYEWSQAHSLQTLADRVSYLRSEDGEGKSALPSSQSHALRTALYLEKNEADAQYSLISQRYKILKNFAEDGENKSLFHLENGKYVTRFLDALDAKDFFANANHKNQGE
Nature of the data set: cryo-EM structure (summary of Example 1). The protocol: as §1

Data set [4] concerns the target B1. In words: cryo-EM structure (summary of Example 1). The method, then: as §1

As to ACUGAAACUGUAGUAGAACCAAUCGGGGUCGUCAAUA (ssRNA) [mature crRNA spacer 1], the binding result in data set [1] is reported as “binds”.
Consider B1, for which the binding result in data set [2] was “binds”.

B2: Csx19 subunit of the Synechocystis sp. PCC 6803 Type III-Dv complex (other)
chain: MPAGGRLMKNLYHYHQYEITLESAVDSCKNHLQAAIGLLYSPQKCELVKLDNSGKLVDSYNRLKFNNLGVFEARFFNLNCELRWVNESNGNGTAVLLSESDITLTGFEKGLQEFITAIDQQYLLWGEPAKHPPNADGWQRLAEARIGKLDIPLDNPLKPKDRVFLTSEEYIAEVDDFGNCAVIDERLIKLEVK
notes: Untagged, co-expressed from pPF2434 in E. coli; one copy in the complex
Regarding B2, the binding result in data set [3] and in data set [4] was “binds” in each case.
